Bridge positions count the residues as written; N and C are the ends. Ends that are not written are not given here.
How the values were obtained:
[1] = target: T1, Recombinant human NPRB extracellular domain - human IgG1 Fc fusion (NPRB-Fc) (human, UniProt P20594 23-458); assay: Fluorescence polarization, 5 nM CNP-F* with 50 nM human NPRB
T1 construct: extracellular domain; Used at 50 nM in the fluorescence polarization assay; R1-T433 counts on the mature protein; also called natriuretic peptide receptor B; not shown: Human IgG1 heavy chain, amino acids E216-G446 (IMGT.org, EU numbering), Accn; P01857.2
T1 sequence (looked up): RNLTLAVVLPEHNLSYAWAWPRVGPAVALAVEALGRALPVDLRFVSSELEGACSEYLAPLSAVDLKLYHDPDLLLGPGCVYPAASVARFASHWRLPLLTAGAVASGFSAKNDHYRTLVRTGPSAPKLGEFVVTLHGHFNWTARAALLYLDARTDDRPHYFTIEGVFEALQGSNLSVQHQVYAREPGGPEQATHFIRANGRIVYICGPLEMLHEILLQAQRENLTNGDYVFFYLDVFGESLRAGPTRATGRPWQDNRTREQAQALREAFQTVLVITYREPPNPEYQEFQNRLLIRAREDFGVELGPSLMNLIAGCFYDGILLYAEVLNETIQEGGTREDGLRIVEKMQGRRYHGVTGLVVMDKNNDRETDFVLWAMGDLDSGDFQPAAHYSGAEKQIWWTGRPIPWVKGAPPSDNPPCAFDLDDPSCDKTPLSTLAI
Protocol: In the presence of [SEQ ID.
Next, 1-L volume of SEQ ID. […] The plate was incubated at room temperature for 10 min. Fluorescence polarization was then measured on Flexstation 3 (excitation wavelength: 480 nm; emission wavelength: 525 nm and cutoff at 515 nm).

[2] = target: T2, Recombinant human NPRA extracellular domain - human IgG1 Fc fusion (NPRA-Fc) (human, UniProt P16066 33-473); assay: Fluorescence polarization, 5 nM CNP-F* probe with recombinant human NPRA-Fc
T2 construct: extracellular domain; Expressed in Expi293 cells, Protein A purified; N1-L439 and C232 count on the mature NPRA, not on the precursor; also called Natriuretic Peptide Receptor A; not shown: Human IgG1 heavy chain, amino acids E216-G446 (IMGT.org, EU numbering), Accn; P01857.2
T2 sequence (looked up): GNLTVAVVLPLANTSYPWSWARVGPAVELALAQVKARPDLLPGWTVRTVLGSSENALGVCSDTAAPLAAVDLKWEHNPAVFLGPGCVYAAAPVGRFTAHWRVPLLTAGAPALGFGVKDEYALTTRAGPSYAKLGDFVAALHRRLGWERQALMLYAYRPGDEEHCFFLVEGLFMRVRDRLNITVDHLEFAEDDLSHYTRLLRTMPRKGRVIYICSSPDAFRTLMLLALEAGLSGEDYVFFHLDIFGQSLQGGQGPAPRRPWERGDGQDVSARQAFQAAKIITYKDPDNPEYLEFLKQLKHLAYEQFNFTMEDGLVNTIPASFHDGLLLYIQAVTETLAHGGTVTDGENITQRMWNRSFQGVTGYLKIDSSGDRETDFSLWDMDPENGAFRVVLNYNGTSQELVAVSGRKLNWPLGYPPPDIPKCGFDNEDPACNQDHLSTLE

B1: CNP-F* probe (C-type natriuretic peptide bound to 5(6)-Carboxyfluorescein) (peptide)
peptide: {5(6)‑carboxyfluorescein}-GLSKGCFGLKLDRIGSMSGLGC
modifications: disulfide 6-22 (inferred)
notes: Made by solid phase synthesis; used at 5 nM in the fluorescence polarization assay; also called CNP probe; CNP based probe
B1: binds [1]; no binding [2].

— patent US20240325544A1, “CATIONIC LIPID FOR COVALENT MODIFICATION OF PEPTIDES” (PharmalN Corporation, priority 2023, published 2024)
